The nature of this data set: yeast display, Sf9 membrane polyspecificity reagent, FACS + sequencing; frameworks hold sequencing errors. The essentials:
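Nanobodies came from a synthetic yeast display library in Saccharomyces cerevisiae BJ5465, induced with galactose for 36–48 hours and stained for 1 hour at 4 °C with 10% biotinylated, detergent-solubilized Sf9 membrane reagent. Cells were enriched on streptavidin microbeads and then FACS-sorted, with low and high (top ~1%) gates set on anti-HA fluorescence for expression and streptavidin fluorescence for reagent binding. Each polyreactivity label reflects the gate a clone came from. Genes were amplified by colony PCR, sequenced by MiSeq 2 × 250 and filtered by CDR length.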
For “QVQLVESGGGLVQAGGSLRLSCAASGSTFYVYDMGWYRQAPGKEREFVAVISWNGGSTYYADSVKGRFTISRDNAKNTVYLQMNSLKPEDTAVYYCATRRSSGRVTYDYWGQGTQVTVSS”, the “polyreactivity (PSR sort gate)” value is listed as “low polyreactivity”. Regarding “QVQLVESGGGLVQAGGSLRLSCAASGLIFENNAMGWYRQAPGKERELVAAITYSGGSTYYADSVKGRFTISRDNAKNTVYLQMNSLKPEDTAVYYCAAESYRRYGYDYWGQGTQVTVSS”, the “polyreactivity (PSR sort gate)” value is on record as “high polyreactivity”. With “QVQHVESRGGLVQAGGSLRLSCAASGNTFWYNAMGWYRQAPGKERELVAAITTSDFGTYYADSVKGRFTISRDNAKNTVYLQMNSLKPEDTAVYYCAAEVYTQRPYYYPAYDYWGQGTQVTVSS” the entry was “high polyreactivity”; with “QFQLVETGGGIVHAGGSLRLSCAASGSTFWYYAMGWYRQAPGKERELVAGITQSGGSTYYADSVKGRFTISRDNAKNTVYLQMNSLKPEDSAVYYFAKDGRVSGDFVYWGQGTQVTVSS”, “low polyreactivity”. With “QVQRVESGGGLVQEGGSLRLSCAASGLIFAIYAMGWYRQAPGKDRELVAAMRWSGASTYADSVKGRFTNSRDNAYNTVYLQMISLKREDTAVYYCAADDLLDYDYWGQGTQVTVSS” the entry was “low polyreactivity”; with “QVQLVESGGGLVQAGGSLRLSCAASGGTFGTNAMGWYRQAPGKEREFVAAISRSGGSTNYADSVKGRFTISRDNAKNTVYLEMNILKPEDTAVYFCATRVIVVPRGGGYYSWGQGTQVTVSS”, “high polyreactivity”; with “QDQHVESVGGLVQAGGSLRLSIAASVLILWQNAMGWYRQAPGKERELVARITWSGVSTDYADSVKGRFTISRDNAKNTVYFQMNSLKPEDTADYYWAADYNRYSYNYARYSLGQNDYWGQGTQVTVSS”, “low polyreactivity”. Regarding “QVQLVESGGGLDQAGGSLPLSCAASGSTFPGNAMGWYSQARGKERELVARINDGADTNYADSVKGRFTISRDNAKNTVYLQMNSLKPEDTAVYYCAADKRGTVYLSSFWMDYWGQGTQVTVSS”, the “polyreactivity (PSR sort gate)” value is “low polyreactivity”. Turning to “QVHLVESGGGLVQAGGSLRLSCAASGITFDLYAMGWYRQAPGKERELVAASTYYADSVKGRFTISRDNAKNTVYLQMNSLKPEDTAVYYCNTREPVTYDYWGQGTQVTVSS”, the “polyreactivity (PSR sort gate)” value is “high polyreactivity”. As for “QVHLVESGGGLVQAGGSLRLSCAASGRTFYGYDMGWYRQAPGKERELVATISSGGSTNYADSVKGRFTISRDYAKNTVYLQMNSLKPEDTAVYYCNADSYEYPSPYRYYYLGYDYWGQGTQVTVSS”, the “polyreactivity (PSR sort gate)” value is reported as “low polyreactivity”.

Turning to “QVQLVESGGGLVQAGGSLRLSCAASGSTFWWYAMGWYRQAPGKDRELVAASSYSGSSTYYADSVKGRFTISRDNAKNTVYLQMNSLKPEDTAVYYCAADIQYYYNYYPGDYWGQGTQVTVSS”, the “polyreactivity (PSR sort gate)” value is on record as “low polyreactivity”. To “QVQLVESGGGLVQAGGRLRLSCAAAGRTFVLYVMGWYRQAPRKEREFVADINAGGGSTYYADSVKGRFTMSRDNAKNTVYLQMNSLKAEDTAVYYCAASYVRGWKHSLDDYWGQGTQVTVAS” belongs “low polyreactivity”; to “QVQLVESGGGLVQAGGSLRLSCAASGITLPAYTMGWYRQAPGKERELVAAISWGGTSTYYADSVKGRFTISRDNAKNTVYLQMNSLKPEDTAVYYCNKAYATYPGYDYWGQGTQVTLSS”, “high polyreactivity”; to “QVQLVESGGGLVQAGGSLRLSCAASGIIFDEYAMGWYRQAPGKEREMVAAITSGGSTYYADSVKGRFTISRDNAKNTVYLQMNSLKPEDTAVYYCNAYSSYGTFFYWAWPYYYWGQGTQVTVSS”, “high polyreactivity”. In the case of “QVQLVESGGGLVQAGGSLRLSCAASGSIFLYYAMGWYRQAPGKERELVATITKGGGSTYYADSVKGRFTISRDNAKNTVYLQMNSLKPEDTAVYYCAADAAHSEYDYWGQGTLVTVSS”, the “polyreactivity (PSR sort gate)” value was “high polyreactivity”. To “QDQLVESVGGIVQAGGSLRLRCAASGFIYSRNAIGWYSEAPGKDREFVARIRWSVGSTYYADSVKGRFTISRENAKNTVYLMMTSLKPEVTAVYSCAADYYKRYKYLYDYWGQGTQVTVSS” belongs “high polyreactivity”; to “QVQLVESGGGLVQAGGSLSLSCAASGRIFRRYAMGWYRQAPWKERELVAAITWSGGSTYADSVKGRFTISRDNAKNTVYLQMNSLKPEDTAVYYCAARYVTTKGSFVVGYGYWGQGTQVTVSS”, “high polyreactivity”; to “QVQLVESGGGLVQAGGSLSLSCAASGRIINWYAMGWYRQATGKERELVARISSGDITSYADSVKGRFTISRDNAKNTVYLQMYSLKPEDTAVSYCAARQWFLYDYWGQGTQVTVSS”, “low polyreactivity”. Consider “QVQLVESVGGLVQAGVSLRLSSAASGSTLKQYAMGWFRQSPGKERELVGAITRSGSSTYYADSVKGRFTISRDNAKNTVYLPMNRLKREDTAVYYCDVGCWKGDYYWGLGTQVTVSS”, for which the “polyreactivity (PSR sort gate)” value is given as “high polyreactivity”. To “QVQLVESGGGLVQAGGSLRLSCAASGSIFSSYAMGWYRQAPGKERELVAAISSSGDSTYADSVKGRFTISRDNAKNTVYLQMNSLKPEDTAVYYCAVGGAGSDDYWGQGTQVTVSS” belongs “low polyreactivity”. To “QVQLVESGGGLVQAGGSLRLSCAASGRIFRYYAMGWYRQAPGKERELVAAISRRGSSTYYADSVKGRFTISRDNAKNTVYLQMNSLKPEDTAVYYCSAKRQVYQSESTYEYWGQGTQVTVSS” belongs “high polyreactivity”; to “QVQLVESGGGLVQAGGSLRLSSAASGRTFGWNSMGWYRHAPGKERELVAAISRTGNTYYADSVKGRFTISRDNAKNTVYLQMNSLKPEDTAVYYCAKGRYYTPTYFRGVDLYDYWGQGTQVTVSS”, “low polyreactivity”; to “QVQLVESGGGLVQAGASLRLSCAASGFTLADNTMGWYRQAPGKERELVAAITSGASTYYADSVKGRFTISRDNAKNTVYLQMKSLKPEDTAVYYCAALYYWRSGYDYWGQGTQVTVSS”, “low polyreactivity”.

With “QVQLVESGGGLVQAGGSLRLSCAASGSIFGVNAMGWYRQAPGKERELVAAISRGTSTSYADSVKGRFTISRDNAKNTVYLQMNSLKPEDTAVYYCAAEVYWRGWWYGYWGQGTQVTVSS”, the “polyreactivity (PSR sort gate)” value was “high polyreactivity”. With “QVQLVESGGGLVQAGGSLRLSCAASGSTFQVYGMGWYRQAPGKERELVAAISRSGGRTYYADSVKGRFTISRDNAKNTVYLQMNSLKPEDTAVYYCNAPISYYDEYYYWGQGTQVTVSS” the entry was “high polyreactivity”; with “QVHLVESGGGLVQAGGSLRLSCAATGLIFPRYAMGWSRQAPGKEREMVAAITRGGSTYYADSVKGRFTISRDNAKNTVYLQMYSLKPEDTAVYYCNADYSPSTWYLYYSLYYYWGQGTQVTVSS”, “low polyreactivity”. Consider “QVQLVESGGGLVQAGGSLRLSCAASGRIFLGYTMGWYRQAPGKERELVASMTWSGGSTYYADSVKGRFTISRDKAKNTVYVQMNSLKPEDTAVYYCIAVFWVARGRYDYWGQGTQVTVSS”, for which the “polyreactivity (PSR sort gate)” value is given as “high polyreactivity”. With “QVQLVESGGGLVQAGGSLRLSCAASGSIFYTNAMGWYRQATGKERELVAVITASGGSTYYADSVKGRFTISRDNAKNTVYLQMNSLKPEDTAVYYCAADPVFNYDYWGQGTQVTVSS” the entry was “low polyreactivity”; with “QFQLVESGGGLVQAGGSLRLSCAASVLTFSAYAMGWYRQAPGKEREFVAAITDSDGSTYYADYVKGRFTISRDNEKNTVYLQMNSLKPEDTAVYYCAASGSWYYGYWSGGYDYWGQGTQVTVSS”, “low polyreactivity”; with “QVQLVESGGGLVQAGGSLRLSCAASGSTFGWYAMGLYRQAPVKERELVATISSGGSTYYADSVKGRFTISRDNAKNNVYLQMNSLKPEDTAVYYCAADYWTYEYPGYDYWGQGTQVTVSS”, “low polyreactivity”. With “QVQLVESGGGLVQAGGSLRLSCAASGSNFGWYAMGWYRQAPGKERELVAAITFSSVSTYYADSEKGRFTISRDNAKNTVYLQMNSLKPEDTAVYYCAAVVYYTFDYWGLGTQVTVSS” the entry was “low polyreactivity”; with “QVQLVESGGGLVQAGGSLRLSCAASGSTSVVNAMGWYRQAPGKERELVAAISTGGASTYYADSVKGRFTISRDNAKNTVYLQMNSLNPEDTAVYYCAADLGYEYDYWGQGTQVTVSS”, “high polyreactivity”.

In the case of “QVQLVESGGGLVQAGGSLRLSCAASGRTFSVNAMGWYRQAPGKERELVAAITSGGSTYYADSVKGRFTISRDNAKNTVYLQMNSLKPEDTAVYYCNAVGRLRRSRLRMDYWGQGTQVTVSS”, the “polyreactivity (PSR sort gate)” value was “high polyreactivity”. Regarding “QVQLVESGVGLVQAGGSLRLSCAASGITFEGYAMGWYRQAPGKERELVAAIRSSGTSTYYADSVKGRFTMSRDNAKNTVYLQMNSLKPEDTAVYYCNRARSSSRYDYWGQGTQVTVSS”, the “polyreactivity (PSR sort gate)” value is “low polyreactivity”.

Take “QVQLVESGGGLVQAGGSLRLSCAASGSIFYANAMGWYRQAPAKERELVAAIRSGGSTNYADSVKGRFTISRDNAKKTVYLQMNSLKPEDTAVYYCAAVWRYWSGQKVGYWGQGTQVTVSS”: the “polyreactivity (PSR sort gate)” value is given as “high polyreactivity”. As to “QVQLVESGGGLVQGGGSLRFSCAASGSTFPSYARGWYRQAPGKERELVAAINSGGGTNYADSVKGRFTISRDNAKNTVYLHMNSLKPEDTAVYYCAKSRYDYTKTEGGYWGQGTQVTVSS”, the “polyreactivity (PSR sort gate)” value is on record as “low polyreactivity”. With “QVQLVESGGGLVQAGGSLRLSCAASGFTIDTYAMGWYRQAPGKERELVAGISWSGGSTYYADSVKGRFTISRDNAKNTVYLQMNSLKPEDTAVYYCARTARRRYQPYEYWGQGTQVTVSS” the entry was “low polyreactivity”; with “QVQLVESGGGLVQAGGSLRLSCAASGFIFGWNAMGWYRQAPGKEREFVAAITSSGTSTYYADSVKGRFTISRDNAKNTVYLQMNSLKPEDTAVYYCATEGWPFYPARDYDYWGQGTQVTVSS”, “low polyreactivity”. In the case of “QVQLVESGGGLVQAGGSLRLSCAAPGSTFYLYAMGWYRQAPGKERELVAAISSGGRTNYADSVKGRFTISRDNAKNTVYLQMNSLKPEDTAVYYCAARIQCPTWSLYYYWGQGTQVTVSS”, the “polyreactivity (PSR sort gate)” value was “high polyreactivity”. In the case of “QVQLVESGGGLVQAGGSLRLSCAASGSIFGFNAMGWYRQAPGIERELVAAINNGGSTNYADSVKGRFTISRENANNTVYLQMNSLKPEDTADYYCAARLNYIRRGYWGQGTQVTVSS”, the “polyreactivity (PSR sort gate)” value is on record as “high polyreactivity”.

Take “QVQLVESGGGLVQAGGSLRLSCAASGFTFPSYTMGWYRQAPGKERELVAAISWSGGRTYYADSVKGRFTISRDNAKITVYLQKNSLKPEETAVYYCAAGYRTGGDSGDYWGQGTQVTVSS”: the “polyreactivity (PSR sort gate)” value is recorded as “high polyreactivity”.
